Target: GST-Ago-2 (full-length recombinant Ago-2) (UniProt Q9UKV8 1-859)
Assay: cell-based or functional assay

Chain of GST-Ago-2 (full-length recombinant Ago-2) (Q9UKV8 whole entry): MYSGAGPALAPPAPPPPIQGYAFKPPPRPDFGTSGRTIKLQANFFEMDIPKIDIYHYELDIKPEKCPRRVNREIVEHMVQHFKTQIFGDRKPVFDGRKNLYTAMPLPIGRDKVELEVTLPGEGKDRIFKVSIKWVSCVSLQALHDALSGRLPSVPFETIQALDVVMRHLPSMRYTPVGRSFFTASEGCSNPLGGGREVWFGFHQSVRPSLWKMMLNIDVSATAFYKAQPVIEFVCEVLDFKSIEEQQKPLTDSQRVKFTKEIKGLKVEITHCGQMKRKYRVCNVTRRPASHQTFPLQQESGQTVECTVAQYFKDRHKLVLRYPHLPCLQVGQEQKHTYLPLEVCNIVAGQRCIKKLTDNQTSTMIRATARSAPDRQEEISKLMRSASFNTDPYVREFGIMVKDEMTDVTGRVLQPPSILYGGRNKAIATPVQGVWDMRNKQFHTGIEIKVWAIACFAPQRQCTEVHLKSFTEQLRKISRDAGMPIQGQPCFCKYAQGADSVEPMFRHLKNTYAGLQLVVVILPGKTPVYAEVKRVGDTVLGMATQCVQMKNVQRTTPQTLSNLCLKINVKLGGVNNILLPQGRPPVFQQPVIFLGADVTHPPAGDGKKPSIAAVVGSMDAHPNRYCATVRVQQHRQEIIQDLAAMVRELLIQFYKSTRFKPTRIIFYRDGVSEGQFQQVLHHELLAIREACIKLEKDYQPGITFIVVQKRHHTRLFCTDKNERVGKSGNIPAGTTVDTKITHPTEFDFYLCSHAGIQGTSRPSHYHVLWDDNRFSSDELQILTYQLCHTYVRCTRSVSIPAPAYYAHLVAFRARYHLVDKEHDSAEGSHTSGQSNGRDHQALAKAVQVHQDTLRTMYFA

in vitro reconstituted deadenylation of radiolabeled L3(A30) RNA substrate, limiting amounts of His-PARN and increasing amounts of GST-Ago-2: 2.4 fold
B1: His-PARN (full-length recombinant PARN) (enzyme, UniProt O95453 1-639, looked up)
chain: MEIIRSNFKSNLHKVYQAIEEADFFAIDGEFSGISDGPSVSALTNGFDTPEERYQKLKKHSMDFLLFQFGLCTFKYDYTDSKYITKSFNFYVFPKPFNRSSPDVKFVCQSSSIDFLASQGFDFNKVFRNGIPYLNQEEERQLREQYDEKRSQANGAGALSYVSPNTSKCPVTIPEDQKKFIDQVVEKIEDLLQSEENKNLDLEPCTGFQRKLIYQTLSWKYPKGIHVETLETEKKERYIVISKVDEEERKRREQQKHAKEQEELNDAVGFSRVIHAIANSGKLVIGHNMLLDVMHTVHQFYCPLPADLSEFKEMTTCVFPRLLDTKLMASTQPFKDIINNTSLAELEKRLKETPFNPPKVESAEGFPSYDTASEQLHEAGYDAYITGLCFISMANYLGSFLSPPKIHVSARSKLIEPFFNKLFLMRVMDIPYLNLEGPDLQPKRDHVLHVTFPKEWKTSDLYQLFSAFGNIQISWIDDTSAFVSLSQPEQVKIAVNTSKYAESYRIQTYAEYMGRKQEEKQIKRKWTEDSWKEADSKRLNPQCIPYTLQNHYYRNNSFTAPSTVGKRNLSPSQEEAGLEDGVSGEISDTELEQTDSCAEPLSEGRKKAKKLKRMKKELSPAGSISKNSPATLFEVPDTW

From PMC4678859, “PARN deadenylase is involved in miRNA-dependent degradation of TP53 mRNA in mammalian cells” (Nucleic Acids Research, 2015)
